Data on 3 molecules can be found in PMC10715145.

Changes are numbered by the printed parent chain.

Series [1] has as its target T1, PacCZF-MBP (Alternaria alternata (tangerine …, UniProt A0A177DU84 1-150)). The series can be described thus: EMSA; […]; 28°C for 20 min; […]; buffer, […]. As to conditions: protein: recombinant; tags: MBP (pMAL-c5x); label: 3'-biotin; blunt.
In series [2] the target is T1, PacCZF-MBP. The series can be described thus: competition; excess unlabeled mutant vs labeled WT ACTT6 probe; […]; 28°C for 20 min; […]; buffer, […]. As to conditions: protein: recombinant; tags: MBP (pMAL-c5x); label: unlabeled; blunt.

B1: ACTT6 promoter WT probe (dsDNA)
DNA 1: CGTGACTGACATCCCGCCAAGGCTAACCATCCGGGA
DNA 2: TCCCGGATGGTTAGCCTTGGCGGGATGTCAGTCACG
On to B1, for which, in the series with PacCZF-MBP [1], the binding result is listed as “binds”.

B2: ACTT6 promoter mutant competitor (dsDNA)
DNA 1: B1 DNA 1 with C17A, C18A, A19C, A20C
DNA 2: B1 DNA 2 with T17G, T18G, G19T, G20T
On to B2, for which the binding result with PacCZF-MBP [2] is “no binding”.

B3: ACTTR promoter WT probe (dsDNA)
DNA 1: ACGAACCACATCCTCGCCAAGGACATGAATGACACA
DNA 2: TGTGTCATTCATGTCCTTGGCGAGGATGTGGTTCGT
As to B3, the binding result in the series with PacCZF-MBP [1] is recorded as “binds”.
